Earlier results, collected in publication PMC5645029 (Journal of medicinal chemistry, 2017).

What was measured:
[1] = target: mMC1R (Mus musculus, UniProt Q01727); conditions: read-out: Ki app at mMC1R; displacement of radiolabeled NDP-MSH; cited from earlier work
[2] = target: mMC4R (Mus musculus, UniProt P56450); conditions: read-out: Ki app at mMC4R; displacement of radiolabeled NDP-MSH; cited from earlier work
[3] = target: mMC3R (Mus musculus, UniProt P33033); conditions: read-out: Ki app at mMC3R; displacement of radiolabeled NDP-MSH; cited from earlier work
Sequence of mMC3R (P33033 whole entry): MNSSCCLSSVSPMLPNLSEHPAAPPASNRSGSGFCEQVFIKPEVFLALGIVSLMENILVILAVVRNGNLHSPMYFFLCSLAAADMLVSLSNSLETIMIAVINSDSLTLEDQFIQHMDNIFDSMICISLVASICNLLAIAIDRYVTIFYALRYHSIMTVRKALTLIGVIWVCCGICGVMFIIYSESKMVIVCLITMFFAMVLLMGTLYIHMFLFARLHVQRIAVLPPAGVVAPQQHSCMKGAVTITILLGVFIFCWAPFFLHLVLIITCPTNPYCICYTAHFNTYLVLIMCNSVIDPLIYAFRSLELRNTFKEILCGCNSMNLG

Sequence of mMC4R (P56450 whole entry): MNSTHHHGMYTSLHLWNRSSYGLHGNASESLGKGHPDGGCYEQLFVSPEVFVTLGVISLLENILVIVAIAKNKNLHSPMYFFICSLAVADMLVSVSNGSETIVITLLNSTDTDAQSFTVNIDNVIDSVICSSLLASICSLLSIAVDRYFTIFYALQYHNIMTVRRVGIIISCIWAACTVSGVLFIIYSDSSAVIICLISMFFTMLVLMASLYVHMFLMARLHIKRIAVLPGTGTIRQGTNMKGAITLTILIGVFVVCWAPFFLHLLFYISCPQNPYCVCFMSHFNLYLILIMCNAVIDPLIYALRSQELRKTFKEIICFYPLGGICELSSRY
Sequence of mMC1R (Q01727 whole entry): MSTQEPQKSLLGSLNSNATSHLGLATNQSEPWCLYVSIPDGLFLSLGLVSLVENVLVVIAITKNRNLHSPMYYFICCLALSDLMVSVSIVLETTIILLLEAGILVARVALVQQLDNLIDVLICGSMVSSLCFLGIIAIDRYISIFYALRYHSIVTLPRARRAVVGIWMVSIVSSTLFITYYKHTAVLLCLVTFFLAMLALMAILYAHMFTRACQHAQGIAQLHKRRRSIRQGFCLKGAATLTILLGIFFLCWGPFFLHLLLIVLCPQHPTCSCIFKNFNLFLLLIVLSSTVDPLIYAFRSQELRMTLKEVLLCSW

B1: mASP: recombinant mouse agouti-signaling protein (protein, UniProt Q03288 23-131, looked up)
Agouti-signaling protein: HLALEETLGDDRSLRSNSSMNSLDFSSVSIVALNKKSKKISRKEAEKRKRSSKKKASMKKVARPPPPSPCVATRDSCKPPAPACCDPCASCQCRFFGSACTCRVLNPNC
In the case of B1, the Ki [1] is given as 2.6 nM, the Ki [2] is given as 54 nM and the Ki [3] is given as 190 nM.
